Measured values published in patent US20250340646A1 (ELPIS BIOPHARMACEUTICALS, published 2025).
Substitutions are numbered along the chain they refer to. Where two headings read alike, the source gives them in different places. Values belong to the binder of their own block, whether it stands above or below them.

Experiments:
[1] = target: PD-L1 on PD-L1 aAPC/CHOK1 cells (Promega J1250); assay: cell-based or functional assay
[2] = target: T1, PD-L1 biotinylated (PD-1/PD-L1 TR-FRET assay kit, BPS 72038) (Homo sapiens (Human), UniProt Q9NZQ7 19-238, biotinylated; site not stated); assay: HTRF PD-1/PD-L1 competition (PD-1-Eu and biotinylated PD-L1), % activity; blocked ligand PD-1-Eu
T1 construct: Kit reagent
Description: (§1) Briefly, 1× Immuno buffer 1 was made. […] For each well in 384-well plate, serial diluted scFvs and regents were added according to manufacturer's recommended volume. Samples were incubated at room temperature for 1.5 hours then the fluorescent intensity was read with Biotek Neo2 plate reader using manufacture's instrument setting for the assay.
(§2) The production, the binding, and all of the characterization assays for selected affinity matured scFv clones were performed as described above.

[3] = target: T2, full-length human PD-L1 on K562 cells (human, UniProt Q9NZQ7 19-290); assay: FACS, PD-L1/K562 cells
T2 construct: also called PD-L1/K562; cell surface human PD-L1
Description: (§3) Cells were spun down at 1200 rpm for 5 minutes at 4° C. to remove primary antibodies. Cells were then washed once with 200 μL of full medium per well. […] Samples were spun down at 1200 rpm for 5 minutes at 4° C. and washed twice with 200 μL of 1×PBS per well. Samples were reconstituted in 200 μL of 1×PBS and were read on Attune NxT cytometer.
as §2

[4] = target: T3, human PD-L1-Fc (human, UniProt Q9NZQ7 19-238); assay: ELISA, coated PD-L1-Fc, anti-FLAG HRP
T3 construct: also called recombinant PD-L1-Fc fusion protein
Description: (§4) The plate was incubated overnight at 4° C. followed by blocking with 80 μL of superblock per well for 1 hour. […] In between each step, the plate was washed 3 times with 1×PBST in a plate washer. The plate was then developed with 20 μL of TMB substrate for 5 min and stopped by adding 20 μL of 2N sulfuric acid. The plate was read at OD450 nm Biotek plate reader and then plotted in Prism 8.1 software.
as §2

[5] = target: T3, human PD-L1-Fc; assay: SPR, PD-L1-Fc captured, scFv analyte
Description: The assay was run with Biacore T200 control software version 2.0. Anti-human Fc antibody was immobilized on flow cell 1 and 2 of CM5 sensor chip. […] The flow cells were then regenerated with antibody regeneration buffer (GE Healthcare) for 30 seconds at flow rate of 30 μl/min.
as §2

[6] = target: PD-L1 on PD-L1 aAPC/CHOK1 cells (Promega J1250); assay: cell-based or functional assay; remark: listed apart in the source
[7] = target: T3, human PD-L1-Fc; assay: ELISA, coated PD-L1-Fc, anti-FLAG HRP; remark: listed apart in the source
Description: as §4

[8] = target: T2, full-length human PD-L1 on K562 cells; assay: FACS, PD-L1/K562 cells; remark: listed apart in the source
Description: as §3

[9] = target: T1, PD-L1 biotinylated (PD-1/PD-L1 TR-FRET …); assay: HTRF competition, competitor PD-1-Eu
Description: as §1

[10] = target: T4, human PD-L1-HIS tagged recombinant protein (human, UniProt Q9NZQ7 19-238); assay: SPR, IgG on Protein A, PD-L1-HIS analyte
T4 construct: also called hPD-L1-HIS; PD-L1 HIS tagged protein
Description: The assay was run with Biacore T200 control software version 2.0. For each cycle, 1 μg/mL of anti-hPD-L1-IgG was captured for 60 seconds at flow rate of 10 μl/min on flow cell 2 in 1×HBSP buffer on Protein A sensor chip. […] The flow cells were then regenerated with Glycine pH 2 for 60 seconds at flow rate of 30 μl/min. […] The specific binding response unit was derived from subtraction of binding to reference flow cell 1 from antibody captured flow cell 2.

B1: 2019EP69-F03 scFv (scFv, not shown: small tags and cut ends)
scFv: QVQLVQSGAEVKKPGSSVKVSCKASGGTFSSYAISWVRQAPGQGLEWMGGIIPIFGTANYAQKFQGRVTITADESTSTAYMELSSLRSEDTAVYYCARDKWYGSAWRGDYWGQGTLVTVSSGGGGSGGGGSGGGGSQSVLTQPPSASGTPGQRVTISCSGSYSNIGSNFVNWYQQLPGTAPKLLIHFNNQRPSGVPDRFSGSRSGTSASLAISGLQSEDEADYFCSTWDDSLKGPIFGGGTKLTVL
- Jurkat NFAT reporter assay EC50 [1]: 123 nM
- IC50 (read off the curve) [2]: ~100 nM
- EC50 [3]: 0.115 nM
- EC50 [4]: 0.696 nM
- Kd [5]: 0.0797 nM
- koff [5]: 9.87e-05 s⁻¹
- kon [5]: 1.24e+06 M⁻¹ s⁻¹

B3: 2018EP170-E06 scFv (scFv, V domains shown)
VH: EVQLVQSGAEVKKPGSSVKVSCKASGGTFSSYAISWVRQAPGQGLEWMGGIIPIFGTANYAQKFQGRVTITADESTSTAYMELSSLRSEDTAVYYCARDSRWGPAPHAFDIWGQGTMVTVSS
VL: QQSVLTQPASVSGSPGQSITISCTGTSSDIGSYNLVSWYQNHPGKAPKLILYEITKRPSGVSSRFSGSKSGNAASLTISGLQAEDEAEYFCCSYAGLSVFFVFGGGTKL
- EC50 [7]: 158 nM
- EC50 [8]: 35.9 nM

B4: 2018EP161-G08 scFv (scFv, V domains shown)
VH: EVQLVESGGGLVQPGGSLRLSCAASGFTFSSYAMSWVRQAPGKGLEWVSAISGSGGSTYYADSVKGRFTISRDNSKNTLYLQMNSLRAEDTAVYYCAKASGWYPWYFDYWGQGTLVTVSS
VL: VIWMTQSPSSLSASLGDRVTITCRASQSVSTYINWYQQKSGKGPKLLIFNASTLQSGVPSRFSGSGSGTDFTLTITSLQPDDSATYYCQQSYRVPLSFGGGTKVEIR
- EC50 [7]: 1.16 nM

B6: anti-PD-L1 IgG antibody EP480/EP481 (2018EP164-F04) (antibody, V domains shown)
VH: QVQLQQWGAGLLKPSETLSLTCAVYGGSFSGYYWSWIRQPPGKGLEWIGEINHSGSTNYNPSLKSRVTISVDTSKNQFSLKLSSVTAADTAVYYCARGRRLRYFDWAAYNWFDPWGQGTLVTVSS
VL: QSALTQDPAVSVALGQTVRITCQGDSLRSHYASWYQQKPGQAPVVVVYDNSDRPSGIPDRFSGSNSGNTATLTISRVEVGDEADYYCQVWDSSSDHYVFGTGTKVEIRT
- Kd [10]: 5.73 nM

B7: anti-PD-L1 IgG antibody 2018EP280-E04 (printed construct pair EP486/EP489) (antibody, V domains shown)
VH: B6 VH with S54I, K75N
VL: B6 VL with T21S, E106T, I107V, R108L, T109G
- Kd [10]: 2.76 nM

Second part, the binder after the results:

- Jurkat NFAT reporter assay EC50 [6]: 400 nM
- EC50 [7]: 8.1 nM
- EC50 [8]: 10.8 nM
- IC50 [9]: 76.8 nM
B2: 2018EP280-E01 scFv (scFv, V domains shown)
VH: EVQLVESGGGLVKPGGSLRLSCAASGLTFSNAWMSWVRQAPGKGLEWVGRIKSKTDGGTTEYAAPVKGRFTISRDDSKNTLYLQMSSLKTEDTAVYYCTIVYYYDSSGPVFFQHWGQGTLVTVSS
VL: QSVLTQPPSASATPGQRVTISCSGSDSNIATNYVYWYQQFPGTAPKLLIYRNHQRPSGVPDRFSGSRSGTSASLAISGLRSEDEADYYCATWDDSVNSWVFGGGTKLTVL
notes: not shown: scFv linker and domain order of the library scFv

- Jurkat NFAT reporter assay EC50 [6]: 133 nM
- EC50 [8]: 5.51 nM
- IC50 [9]: 38.5 nM
B5: 2018EP280-E04 scFv (scFv, V domains shown)
VH: B6 VH with S54I, K75N
VL: QSALTQDPAVSVALGQTVRISCQGDSLRSHYASWYQQKPGQAPVVVVYDNSDRPSGIPDRFSGSNSGNTATLTISRVEVGDEADYYCQVWDSSSDHYVFGTGTKVTVL
notes: as for B2

- Kd [10]: 9.5 nM
B8: anti-PD-L1 IgG antibody EP488/EP489 (2018EP171-H02) (antibody, V domains shown)
VH: QVQLVQSGAEVKKPGSSVKVSCKASGGTFSSYAISWVRQAPGQGLEWMGGIIPIFGTANYAQKFQGRVTITADESTSTAYMELSSLRSEDTAVYYCARDKGYGSGWRGDYWGQGTLVTVSS
VL: QSVLTQPPSASGTPGQRVTISCSGSYSNIGSNFVNWYQQLPGTAPKLLIHFNNQRPSGVPDRFSGSRSGTSASLAISGLQSEDEADYFCSTWDDSLKGPIFGGGTKLTVLG
